For this assay, the target named is activation loop-phosphorylated ERK2 (Homo sapiens, UniProt P28482). As to the kind of experiment: In vitro activity assay against activation loop-phosphorylated ERK2. Type of assay: biochemical. The following applies: read-out: IC50 against ERK2, triplicate.
Chain of activation loop-phosphorylated ERK2 (P28482 whole entry): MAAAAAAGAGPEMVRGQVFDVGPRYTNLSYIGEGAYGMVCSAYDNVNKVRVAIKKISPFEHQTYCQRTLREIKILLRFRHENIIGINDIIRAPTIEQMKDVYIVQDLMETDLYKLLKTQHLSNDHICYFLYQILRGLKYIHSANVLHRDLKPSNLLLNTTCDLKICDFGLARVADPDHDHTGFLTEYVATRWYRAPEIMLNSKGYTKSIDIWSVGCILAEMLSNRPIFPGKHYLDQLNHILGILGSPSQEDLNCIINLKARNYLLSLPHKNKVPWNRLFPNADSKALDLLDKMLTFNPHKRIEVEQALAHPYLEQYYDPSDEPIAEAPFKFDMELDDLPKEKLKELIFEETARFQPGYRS

B1: SNAPtag-4: monovalent conjugate of 4 to SNAPtag (protein)
chain: GPGSDKDCEMKRTTLDSPLGKLELSGCEQGLHEIIFLGKGTSAADAVEVPAPAAVLGGPEPLMQATAWLNAYFHQPEAIEEFPVPALHHPVFQQESFTRQVLWKLLKVVKFGEVISYSHLAALAGNPAATAAVKTALSGNPVPILIPCHRVVQGDLDVGGYEGGLAVKEWLLAHEGHRLGKR
modifications: SNAPtag is engineered
What is called IC50 is the midpoint of a concentration-inhibition curve. For the molecule B1, the IC50 amounted to 3900 nM.

B2: SNAP(pE59)-4: bivalent inhibitor of activation loop-phosphorylated ERK2: SNAP(pE59) labeled with 4 (protein)
chain: GPGSDKDCEMKRTTLDSPLGKLELSGCEQGLHEIIFLGKGTSAADAVEVPAPAAVLGGPEPLMQATAWLNAYFHQPEAIEEFPVPALHHPVFQQESFTRQVLWKLLKVVKFGEVISYSHLAALAGNPAATAAVKTALSGNPVPILIPCHRVVQGDLDVGGYEGGLAVKEWLLAHEGHRLGKRDLGKKLLEAARAGQDDEVRILMANGADVNALDEDGLTPLHLAAQLGHLEIVEVLLKYGADVNAEDNFGITPLHLAAIRGHLEIVEVLLKHGADVNAQDKFGKTAFDISIDNGNEDLAEILQKLN
In the case of B2, the IC50 was determined as 0.8 nM.

Values taken from PMC4943861 (ACS chemical biology, 2015).
